Measured values published in patent publication US20120231005A1 (Merck Sharp & Dohme, published 2012).
Positions count from the first letter of the chain named. Each block holds one binder with its values, some of them ahead of it.

What was measured:
rhesus PCSK9 (rhesus) [1] = assay: cell-based or functional assay
human PCSK9 [2] = target: T1, human PCSK9 (human, UniProt Q8NBP7 31-692, limits assumed); assay: cell-based or functional assay
rhesus PCSK9 (rhesus) [3] = assay: SPR (Biacore); IgG captured on anti-human IgG, PCSK9 injected
human PCSK9 [4] = target: T1, human PCSK9; assay: as above
Description: (§1) The affinities of those IgG molecules were also measured by Biacore assay. Briefly, anti-human IgG monoclonal antibody form Human Antibody Capture Kit provided by Biacore was immobilized on CM5 chips at a level of 8000 to 10000 RU. […] After each round injection, the sensor chip surface was regenerated by 30 second injection of 3M Magnesium Chloride.

human PCSK9 [5] = target: T1, human PCSK9; assay: SPR (Biacore); Fab captured on anti-Fab IgG, PCSK9 injected; 1:1 Langmuir fit
Description: First, goat anti-Fab IgGs were immobilized onto CM5 chip by amine coupling as described above. The anti-Fab IgGs were diluted to 200 μg/ml in pH 5/10 mM Acetate solution, and injected onto the NHS/EDC activated surface to achieve an immobilization level of ˜10,000 RU, followed with surface inactivation by injection of Ethanolamine. […] The sensor chip surface was regenerated by 30 second injection of 100 mM phosphoric acid. The binding sensorgrams were fitted with 1:1 Langmuir binding model to determine the binding affinity.

human PCSK9 [6] = target: T1, human PCSK9; assay: TR-FRET; antibody titrated against 10 nM AF647-PCSK9 and about 4 nM Eu-LDLR ectodomain
Description: After at least 90 minutes of equilibration, samples were read in a Rubystar reader (BMG Corp.) using 20 flashes per well, a 50 μsec integration delay, and a 200 μsec total integration time.

human FcRn = target: T2, human FcRn (human, UniProt P55899 24-297; P61769 21-119, limits assumed); assay: Biacore; human FcRn immobilised, 100 nM mAb bound at pH 6.0, read 5 s into dissociation at pH 7.3
T2 construct: Beta-2-microglobulin is not mentioned for the purified protein; also called human FeRn
Description: The neutral pH dissociation of mAbs from human FeRn was measured by SPR using a Biacore T-100 instrument. Briefly, purified FeRn protein was immobilized onto a Biacore CM5 biosensor chip and PBSP (50 mM NaPO4, 150 mM NaCl and 0.05% (v/v) Surfactant 20) pH 7.3 was used as running buffer. The mAbs were diluted with PBSP pH 6.0 to 100 nM, allowed to bind FcRn for 3 minutes to reach equilibrium and followed by 1 minute of dissociation in pH 7.3 running buffer. A report point (Stability) was inserted at 5 seconds after the end of mAb binding and the “% bound” was calculated as RUStability/RUBinding (%).

rhesus PCSK9 (rhesus) [7] = assay: affinity table, IgG2 (Biacore)
human PCSK9 [8] = target: T1, human PCSK9; assay: affinity table, IgG2 (Biacore)
Description: as §1

mouse PCSK9 = target: T3, mouse PCSK9 (mouse, UniProt Q80W65 35-694, limits assumed); assay: affinity table, IgG2 (Biacore)
T3 construct: also called Mouse PCSK9 9
T3 sequence (Q80W65 35-694 limits assumed): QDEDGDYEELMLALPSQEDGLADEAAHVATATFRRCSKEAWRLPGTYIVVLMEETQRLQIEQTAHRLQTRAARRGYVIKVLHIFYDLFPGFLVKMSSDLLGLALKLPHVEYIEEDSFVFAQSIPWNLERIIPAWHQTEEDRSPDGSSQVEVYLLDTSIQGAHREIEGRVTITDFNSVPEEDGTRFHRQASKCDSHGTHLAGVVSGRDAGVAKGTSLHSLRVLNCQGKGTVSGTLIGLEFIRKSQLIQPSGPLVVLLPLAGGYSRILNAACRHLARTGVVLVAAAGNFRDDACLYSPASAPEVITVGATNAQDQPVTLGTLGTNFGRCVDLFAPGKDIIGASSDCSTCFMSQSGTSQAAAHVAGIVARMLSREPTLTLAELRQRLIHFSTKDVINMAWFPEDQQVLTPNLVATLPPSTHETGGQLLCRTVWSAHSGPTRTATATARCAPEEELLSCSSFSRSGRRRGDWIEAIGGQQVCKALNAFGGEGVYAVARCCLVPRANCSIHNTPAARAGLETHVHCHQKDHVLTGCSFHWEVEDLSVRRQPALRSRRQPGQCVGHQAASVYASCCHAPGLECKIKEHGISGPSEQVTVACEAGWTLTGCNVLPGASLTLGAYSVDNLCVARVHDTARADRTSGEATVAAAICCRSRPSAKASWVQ
Description: as §1

T1 sequence (Q8NBP7 31-692 limits assumed): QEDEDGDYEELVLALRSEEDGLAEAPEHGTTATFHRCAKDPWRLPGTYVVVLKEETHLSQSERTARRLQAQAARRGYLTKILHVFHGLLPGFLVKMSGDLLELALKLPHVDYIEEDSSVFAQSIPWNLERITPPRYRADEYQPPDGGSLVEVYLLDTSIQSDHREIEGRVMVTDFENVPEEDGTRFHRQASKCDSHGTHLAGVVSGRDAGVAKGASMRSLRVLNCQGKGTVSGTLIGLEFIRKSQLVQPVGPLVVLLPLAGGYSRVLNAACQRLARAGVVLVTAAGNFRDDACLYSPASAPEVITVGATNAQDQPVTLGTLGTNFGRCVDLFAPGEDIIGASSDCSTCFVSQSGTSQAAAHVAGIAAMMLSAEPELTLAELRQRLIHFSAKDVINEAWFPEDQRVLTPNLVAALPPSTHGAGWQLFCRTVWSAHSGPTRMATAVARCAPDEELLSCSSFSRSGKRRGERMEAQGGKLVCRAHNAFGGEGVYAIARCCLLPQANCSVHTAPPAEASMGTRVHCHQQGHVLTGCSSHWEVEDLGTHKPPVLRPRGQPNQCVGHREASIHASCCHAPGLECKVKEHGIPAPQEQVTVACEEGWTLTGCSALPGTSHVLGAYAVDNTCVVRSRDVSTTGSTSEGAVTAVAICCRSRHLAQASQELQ

B1: AX188 IgG2 (antibody, V domains shown)
VH: EVQLLESGGGLVQPGGSLRLSCKASGYTFSSYWMHWVRQAPGKGLEWIGRIDPYNGGTKYNEKFKGKATISRDNSKNTLYLQMNSLRAEDTAVYYCARYGYYLGSYAMDYWGQGTLVTVSS
VL: DIQMTQSPSSLSASVGDRVTITCRASQSVSRYLAWYQQKPGKAPKLLIYAASSLQSGVPSRFSGSGSGTDFTLTISSLQPEDFATYYCEAYDYSSGPWVFGGGTKVEIKR
notes: IgG2
IgG IC50 (nM), inhibition of PCSK9 on LDL uptake (Exopolar assay) (rhesus PCSK9 (rhesus) [1]): 18.7 nM
IgG IC50 (nM), inhibition of PCSK9 on LDL uptake (Exopolar assay) (human PCSK9 [2]): 24.8 nM
Kd (rhesus PCSK9 (rhesus) [3]): 0.454 nM
Kd (human PCSK9 [4]): 0.873 nM

B2: AX422 Fab (Fab, V domains shown)
VH: B1 VH with N55S
VL: DIQMTQSPSSLSASVGDRVTITCRASQDVSRYLTWYQQKPGKAPKLLIYAASSLQSGVPSRFSGSGSGTDFTLTISSLQPEDFATYYCQAYDYSLSGYVFGGGTKVEIK
notes: also called AX189_VH 55N to S
Kd (human PCSK9 [5]): 4.1 nM

B3: AX9 Fab (Fab, V domains shown)
VH: B1 VH
VL: B1 VL with S28D, R31K, E89Q, A90V, Y93S, S95P, G96N, P97A, W98Y
Fab IC50 (nM), inhibition of PCSK9 on LDL uptake (Exopolar assay) (human PCSK9 [2]): 287 nM
Kd (human PCSK9 [5]): 23.9 nM

B7: AX422 IgG2 (antibody, V domains shown)
VH: B1 VH with N55S
VL: B1 VL with S28D, A34T, E89Q, S95L, G96S, P97G, W98Y
notes: also called AX422 (55N to S)
IgG IC50 (nM), inhibition of PCSK9 on LDL uptake (Exopolar assay) (human PCSK9 [2]): 5 nM
Kd (rhesus PCSK9 (rhesus) [3]): 1.96 nM
Kd (human PCSK9 [4]): 2.12 nM

B8: AX423 Fab (Fab, V domains shown)
VH: B1 VH with G56T
VL: B2 VL
notes: also called AX189_VH 56G to T
Kd (human PCSK9 [5]): 32.8 nM

B9: AX191 IgG2 (antibody)
heavy: EVQLLESGGGLVQPGGSLRLSCKASGYTFSSYWMHWVRQAPGKGLEWIGRIDPYNGGTKYNEKFKGKATISRDNSKNTLYLQMNSLRAEDTAVYYCARYGYYLGSYAMDYWGQGTLVTVSSASTKGPSVFPLAPCSRSTSESTAALGCLVKDYFPEPVTVSWNSGALTSGVHTFPAVLQSSGLYSLSSVVTVPSSNFGTQTYTCNVDHKPSNTKVDKTVERKCCVECPPCPAPPVAGPSVFLFPPKPKDTLMISRTPEVTCVVVDVSHEDPEVQFNWYVDGVEVHNAKTKPREEQFNSTFRVVSVLTVVHQDWLNGKEYKCKVSNKGLPAPIEKTISKTKGQPREPQVYTLPPSREEMTKNQVSLTCLVKGFYPSDIAVEWESNGQPENNYKTTPPMLDSDGSFFLYSKLTVDKSRWQQGNVFSCSVMHEALHNHYTQKSLSLSPGK
light: DIQMTQSPSSLSASVGDRVTITCRASQDISKYLAWYQQKPGKAPKLLIYAASSLQSGVPSRFSGSGSGTDFTLTISSLQPEDFATYYCQAYDYSSSAYVFGGGTKVEIKRTVAAPSVFIFPPSDEQLKSGTASVVCLLNNFYPREAKVQWKVDNALQSGNSQESVTEQDSKDSTYSLSSTLTLSKADYEKHKVYACEVTHQGLSSPVTKSFNRGEC
notes: IgG2
IgG IC50 (nM), inhibition of PCSK9 on LDL uptake (Exopolar assay) (rhesus PCSK9 (rhesus) [1]): 6.6 nM
IgG IC50 (nM), inhibition of PCSK9 on LDL uptake (Exopolar assay) (human PCSK9 [2]): 8.7 nM
Kd (rhesus PCSK9 (rhesus) [3]): 0.625 nM
Kd (human PCSK9 [4]): 0.846 nM
IC50 (human PCSK9 [6]): 3 nM
% bound (RUStability/RUBinding) (human FcRn): 1.1%

B13: AX199 Fab (Fab, V domains shown)
VH: B1 VH
VL: B2 VL with D28S, R31N, T34H, S96G, G97P
Kd (human PCSK9 [5]): 26.2 nM

B18: AX425 Fab (Fab, V domains shown)
VH: B1 VH with N55D
VL: B2 VL
notes: also called AX189_VH 55N to D
Kd (human PCSK9 [5]): 17.6 nM

B20: AX196 Fab (Fab, V domains shown)
VH: B1 VH
VL: B2 VL with M4I, T34A, Q89E, A90S, G97H
Kd (human PCSK9 [5]): 18.3 nM

B21: AX424 IgG2 (antibody, V domains shown)
VH: B1 VH with N55T
VL: B1 VL with S28D, A34T, E89Q, S95L, G96S, P97G, W98Y
notes: also called AX424 (55N to T)
IgG IC50 (nM), inhibition of PCSK9 on LDL uptake (Exopolar assay) (human PCSK9 [2]): 6 nM
Kd (rhesus PCSK9 (rhesus) [3]): 2.36 nM
Kd (human PCSK9 [4]): 2.16 nM

B22: AX114 IgG2 (antibody, V domains shown)
VH: EVQLLESGGGLVQPGGSLRLSCKASGYTFSSYGMYWVRQAPGKGLEWIGWIDPGSGGTKYNEKFKGKATISRDNSKNTLYLQMNSLRAEDTAVYYCARERYGYYFDYWGQGTLVTVSS
VL: EIVLTQSPATLSLSPGERATITCRASQYVGTYLNWYQQKPGQAPRLLIYDASNRATGIPARFSGSGSGTDFTLTISSLEPEDFAVYYCQVWDSSPPVAFGGGTKVEIK
Kd (rhesus PCSK9 (rhesus) [7]): 11.6 nM
Kd (human PCSK9 [8]): 24 nM
Kd (mouse PCSK9): 11.2 nM

B23: AX132 IgG2 (antibody, from another filing, V domains shown)
VH: B22 VH
VL: EIVLTQSPATLSLSPGERATITCRASQYVGSYLNWYQQKPGQAPRLLIYDASNRATGIPARFSGSGSGTDFTLTISSLEPEDFAVYYCQVWDSSPPVVFGGGTKVEIKR
Kd (rhesus PCSK9 (rhesus) [7]): 2.59 nM

Next, values leading:

Fab IC50 (nM), inhibition of PCSK9 on LDL uptake (Exopolar assay) (human PCSK9 [2]): 146 nM
Kd (human PCSK9 [5]): 6 nM
B4: AX1 Fab (Fab, V domains shown)
VH: EVQLLESGGGLVQPGGSLRLSCKASGFTFTSYYMHWVRQAPGKGLEWIGRINPDSGSTKYNEKFKGRATISRDNSKNTLYLQMNSLRAEDTAVYYCARGGRLSWDFDVWGQGTLVTVSS
VL: B1 VL with S28D, V29I, E89A, S95L, P97G, W98Y, G102D
notes: Soluble Fab from E. coli TG1 periplasm; Tags encoded by the display vector are not described for the protein

Fab IC50 (nM), inhibition of PCSK9 on LDL uptake (Exopolar assay) (human PCSK9 [2]): 31 nM
Kd (human PCSK9 [5]): 6.3 nM
B5: AX189 Fab (Fab, V domains shown)
VH: B1 VH
VL: B1 VL with S28D, A34T, E89Q, S95L, G96S, P97G, W98Y
notes: The heavy chain is the Fd chain

Kd (human PCSK9 [5]): 6.1 nM
B6: AX194 Fab (Fab, V domains shown)
VH: B1 VH
VL: B2 VL with I21T, D28A, S96G, G97A

Kd (human PCSK9 [5]): 4.2 nM
B10: AX424 Fab (Fab, V domains shown)
VH: B1 VH with N55T
VL: B2 VL
notes: also called AX189_VH 55N to T

Kd (human PCSK9 [5]): 5.6 nM
B11: AX197 Fab (Fab, V domains shown)
VH: B1 VH
VL: B2 VL with D28A, V29I, T34A, S96G, G97H

Kd (human PCSK9 [5]): 6.7 nM
B12: AX421 Fab (Fab, V domains shown)
VH: B1 VH with G56E
VL: B2 VL
notes: also called AX189_VH 56G to E

Fab IC50 (nM), inhibition of PCSK9 on LDL uptake (Exopolar assay) (human PCSK9 [2]): 13 nM
Kd (human PCSK9 [5]): 5.2 nM
B14: AX191 Fab (Fab, V domains shown)
VH: B1 VH
VL: B2 VL with V29I, R31K, T34A, L95S, G97A

Kd (human PCSK9 [5]): 4.3 nM
B15: AX198 Fab (Fab, V domains shown)
VH: B1 VH
VL: B2 VL with D28A, R31S, T34N, Q89E, S96G, Y98W

Kd (human PCSK9 [5]): 7 nM
B16: AX193 Fab (Fab, V domains shown)
VH: B1 VH
VL: B2 VL with D28A, V29I, R31K, T34N, Q89E, A90S, S96G, G97R

Kd (human PCSK9 [5]): 9.6 nM
B17: AX200 Fab (Fab, V domains shown)
VH: B1 VH
VL: B2 VL with R31K, T34A, Q89E, G97H

Kd (human PCSK9 [5]): 9.9 nM
B19: AX195 Fab (Fab, V domains shown)
VH: B1 VH
VL: B2 VL with D28A, R31K, T34A, S96G, G97D
